{"source": "patent US20230074277A1", "about": "(BUEHLMANN LABORATORIES, published 2023)", "proteins": {"B1": {"name": "recombinant fusion polypeptide (SEQ ID NO:3) (other)", "chain": "MHHHHHHLEVLFQGPMTCKMSQLERNIETIINTFHQYSVKLGHPDTLNQGEFKELVRKDLQNFLKKENKNEKVIEHIMEDLDTNADKQLSFEEFIMLMARLTWASHEKMHEGDEGPGHHHKPGLGEGTPLEVLFQGPMLTELEKALNSIIDVYHKYSLIKGNFHAVYRDDLKKLLETECPQYIRKKGADVWFKELDINTDGAVNFQEFLILVIKMGVAAHKKSHEESHKE", "notes": "Single polypeptide, monomer 26.8 kDa, equal to an S100A8/S100A9 heterodimer; It dimerizes in 2 mM CaCl2, equal to the heterotetramer; also called rCAL (Mrp14-Mrp8 fusion)"}}, "biological_target": "the molecule itself", "assay": "size exclusion chromatography, buffer A + 2 mM CaCl2", "source_text": "FIG. 9: Site-directed mutagenesis of the SEQ-ID NO:3 fusion protein and its consequences. A previously described mutation (EP3248015 A1) that impairs heterotetramerization of S100A8/S100A9, namely E78A in the S100A9 polypeptide chain, was introduced into the fusion protein. This E78A mutant remains monomeric, even in the presence of CaCl₂.\nSite directed mutagenesis was used to introduce the mutation E78A in the S100A9 chain (see EP3248015 A1) of the fusion protein (SEQ ID NO:3). In endogenous calprotectin, this mutation abrogates […] (Leukert N et al. Calcium-dependent tetramer formation of S100A8 and S100A9 is essential for biological activity (2006). J. Mol. Biol. 359: 961-972). Similary, introduction of this mutation into the fusion protein (SEQ-ID NO:3) prevented CaCl₂) dependent dimerization. The S200 size exclusion chromatography of the mutated and non-mutated fusion proteins (SEQ ID NO:3) in buffer A containing 2 mM CaCl₂) was performed as described in Examples 1 and 3 (FIG. 9)."}
{"protein": "B1", "values": [{"measurement": "binding result", "value": "binds"}]}
